Assay results: paper PMC7319964, “The MiDAC histone deacetylase complex is essential for embryonic development and has a unique multivalent structure” (Nature Communications, 2020)

Target: the molecule itself
Assay: cryo-EM structure; complex of HDAC1, MIDEAS ELM2-SANT and DNTTIP1 lacking the DNA-binding domain; 50 µM SAHA and 50 µM InsP6, glutaraldehyde cross-linked on ice; dimer map ~4 Å (C2) and tetramer map 4.5 Å (D2) from the same grids

B1: ELM2-SANT domain from MIDEAS (domain or fragment, UniProt Q6PJG2 717-887, looked up)
chain: VSIEPRINVGSRFQAEIPLMRDRALAAADPHKADLVWQPWEDLESSREKQRQVEDLLTAACSSIFPGAGTNQELALHCLHESRGDILETLNKLLLKKPLRPHNHPLATYHYTGSDQWKMAERKLFNKGIAIYKKDFFLVQKLIQTKTVAQCVEFYYTYKKQVKIGRNGTLT
notes: MIDEAS (ELMSAN1, c14orf43) ELM2-SANT domain; The tag is followed by a TEV protease cleavage site; TEV released the complex from the anti-FLAG resin; also called MIDEAS co-repressor protein; not shown: 10xHis, N-terminal, cleaved; 3xFLAG, N-terminal, cleaved
  binding result: binds
